Reference: patent US20210284724A1 (I MAB BIOPHARMA US, published 2021)
Where a chain is given by its changes, count along the chain named.

T1: human CXCL13 (human, UniProt O43927 23-109)
T1 construct: also called huCXCL13; rhCXCL13
T1 sequence (looked up): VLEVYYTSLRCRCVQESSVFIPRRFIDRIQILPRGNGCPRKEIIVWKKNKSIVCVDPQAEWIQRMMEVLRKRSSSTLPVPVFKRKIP

T2: cynomolgus CXCL13 (cynomolgus, UniProt H6WS58 23-109)
T2 construct: also called cynoCXCL13; Cyno CXCL13
T2 sequence: T1 sequence (looked up) with S8H, L32S, I52V, M65I, V68M, R72K, L77P

T3: mouse CXCL13 (mouse, UniProt O55038 22-109)
T3 construct: also called rmCXCL13
T3 sequence (looked up): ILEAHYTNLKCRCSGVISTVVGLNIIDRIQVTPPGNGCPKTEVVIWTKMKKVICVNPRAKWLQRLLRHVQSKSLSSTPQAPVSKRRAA

B1: 71F4-B-A (antibody, V domains shown)
VH: EVQLVESGGGLVQPGGSLRLSCAASGIDFSRYWMSWVRQAPGKGLEWVAEINPEASTINYAPSLKDRFTISRDNAKNSLYLQMNSLRAEDTAVYYCARQDDYEYYTMDYWGQGTTVTVSS
VL: DIQMTQSPSSLSASVGDRVTITCKVSQDVNTGVAWYQQKPGKAPKLLIYSASYRYTGVPSRFSGSGSGTDFTFTISSLQPEDIATYYCQQYYSTPLTFGGGTKLEIK
B2: 71F4-B-ASH (antibody, V domains shown)
VH: B1 VH with T57S, E103S, Y104H
VL: B1 VL
B3: 71F4-B-SSH (antibody, V domains shown)
VH: B1 VH with A55S, T57S, E103S, Y104H
VL: B1 VL
B4: 71F4-B-H (antibody, V domains shown)
VH: B1 VH with A55S, Y104H
VL: B1 VL
notes: also called 71F4A3-B-H
B5: 71F4-B-T (antibody, V domains shown)
VH: B1 VH with A55S, Y104T
VL: B1 VL
notes: also called 71F4A3-B-T
B6: 71F4-B-S2 (antibody, V domains shown)
VH: B1 VH with A55S, E103S
VL: B1 VL
B7: 71F4-B-L (antibody, V domains shown)
VH: B1 VH with A55S, E103L
VL: B1 VL
B8: 71F4-B-SH (antibody, V domains shown)
VH: B1 VH with A55S, E103S, Y104H
VL: B1 VL
B9: 71F4-B-S1 (antibody, V domains shown)
VH: B1 VH with A55S, T57S
VL: B1 VL
B10: 71F4-B-LT (antibody, V domains shown)
VH: B1 VH with A55S, E103L, Y104T
VL: B1 VL
notes: also called 71F4A3-B-LT
B11: 71F4-B-AS (antibody, V domains shown)
VH: B1 VH with T57S
VL: B1 VL
B12: 409G9C2 (antibody, V domains shown)
VH: EVQLQQSGPGLVKPSGTLSLTCAVSGGSITSSYWWTWVRQPPGKGLEWIGEIYHSGRPNYNPSLKSRATISVDKSRNQFSLNLTSVTAADTAVYYCAKTAAVSYWYFDLWGRGTLVTVSS
VL: DIKMNQSPSSMSASLGDRVTITCQASQDIGNDLIWFQQKPGKSPRPLIYYASNLANGVPSRFSGRRSESNYSLTISSLESEDMADYHCLQFKQYPFTFGAGTKLELK
notes: Hybridoma mAb
B13: 410A4D10 (antibody, V domains shown)
VH: EVQLQQSGPGLVRPSGTLSLTCAVSGGSISSRNWWGWVRQPPGKGLEWIGEIYHSGGTNYNPSLKSRVTISVDKSKNQFSLKLSSVTAADTAVYYCAREFGDSVWYFDLWGRGTLVTVSS
VL: B12 VL with K3V, M4I, N5T, I34V, S52T, N56D, N70K, S77N, F96Y
notes: Hybridoma mAb
B14: 178E2B3 (antibody, V domains shown)
VH: QVQLQQSGAELVRPGTSVKVSCKASGYAFTNHLIEWVKQRPGQGLEWIGVINPGSGGTKYNEKFKGKATVTADKSSSTVYMQLNSLTSEDSAVYFCARSSDGYYEEDYFDYWGQGTTLTVSS
VL: QIVLTQSPAIMSASPGEKVTMTCSASSSVNYMQWYQQKSGTSPKRWIYDTSELASGVPDRFSGSGSGTSYSLTISSMEAEDVATYYCQQWSSDPITFGAGTKLELK
notes: Hybridoma mAb
B15: 181B11G12 (antibody, V domains shown)
VH: EVKLVESEGGLVQPGSSMKLSCTASGFTFSDYYMAWVRQVPEKGLEWVANINYDGSDTYYLDSLKSRFIISRDNAKNILYLQMSSLKSEDTATYYCVRDVAYDDSYAMDYWGQGTSVTVSS
VL: DIQMTQSPSSLSASLGGKVTITCKASQDINKYIAWYQHKPGKGPRLLIHYTSTLQPGIPSRFSGSGSGRDYSFSISNLEPEDIATYYCLQYDSLYTFGGGTKLEIK
notes: Hybridoma mAb
B16: 345G1B4 (antibody, V domains shown)
VH: QVTLKESGPGILQPSQTLSLTCSFSGFSLSTSNMGVGWIRQPSGKGLEWLAHIWWDDVKRYNPALKSRLTISKDTSSSQVFLKIASVDTADTATYYCARSTTLVAFDYWGQGTTLTVSS
VL: DIVMTQSPSSLTVTAGEKVTMSCKSSQSLLNSGNQKNYLTWYQQKPGQPPKLLIYWASTRESGVPDRFTGSGSGTDFTLTISSVQAEDLAVYYCQNDYSYPTFGGGTKLEIK
notes: Hybridoma mAb
B17: 396A5A1 (antibody, V domains shown)
VH: B16 VH with N33G, V36I, V58I, I71V, S77T, K83N, T92I, Y96F, L103V
VL: B16 VL with V3L, S71T, V91I, S99D
notes: Hybridoma mAb
B18: 415A3D1 chimeric Fab (Fab, V domains shown)
VH: EVKLLESGGGLVQAGGSMRLSCGAFGFTVTDFYINWIRQPAGKAPEWLGFMRNKANGYTTEYNPSVKGRFTISRNNTQNMPYLQMNTLRTEDTAIYYCARSRYNADDYYVGVMDVWGQGASVTVSS
VL: DIQMTQFPASLSASLGETVSIECLASEDIYNNLAWYQQKPGKSPQLLIYYTNSLQDGVPSRFSGTGSGTQYSLKINSLESEDAATYFCLQDSEYPWTFGGGTKLKLK
notes: Fab; label read as clone 415A3D1F4
B19: 329F2E1 chimeric Fab (Fab, V domains shown)
VH: EVKLLQSGGGLVQPGGSLKLSCAASGIDFSRYWMSWVRRAPGKGLEWIGEINPDSSTINYAPSLKDKFIISRDNAKNTLYLQMSKVRSEDTALYYCARQDDYDYYAMDYWGQGTSVTVSS
VL: DIVMTQSHKFMSTSVGDRVSITCKASQDVSTGVAWYQQKPGQSPKLLIYSASYRYTGVPDRFTGSGSRTDFTFTISSVQTEDPAVYYCHQYYTIPLTFGAGTELELK
notes: Fab

Target: T1, human CXCL13
Assay: SPR Biacore T200
Description: To further optimization of 71F4-B, each Mutations in 71F4A3 useful for improving binding (Kon) were added into 71F4-B, the sequences were listed in Table 28. Antibodies according to these sequences were generated and affinity testing was performed by Biacore T200.

Row | Binder | Kd [nM] | koff [s⁻¹] | kon [M⁻¹ s⁻¹]
1 | B1 | 0.388 | 6.82e-05 | 176000
2 | B2 | 0.521 | 9.17e-05 | 176000
3 | B3 | 0.377 | 9.46e-05 | 251000
4 | B4 | 0.0647 | 1.27e-05 | 197000
5 | B5 | 0.0456 | 1.17e-05 | 256000
6 | B6 | 0.52 | 0.000268 | 515000
7 | B7 | 0.443 | 8.58e-05 | 194000
8 | B8 | 0.29 | 5.55e-05 | 192000
9 | B9 | 0.404 | 9.26e-05 | 229000
10 | B10 | 0.0435 | 1.02e-05 | 235000
11 | B11 | 0.321 | 7.25e-05 | 226000

Target: T1, human CXCL13
Assay: ELISA, coated antigen

Row | Binder | EC50 [µg/mL]
12 | B12 | 2.27
13 | B13 | 2.14
14 | B14 | 0.0153
15 | B15 | 0.0223
16 | B16 | 0.0138
17 | B17 | 0.0135

Target: T2, cynomolgus CXCL13
Assay: ELISA, coated antigen

Row | Binder | binding result
18 | B12 | no binding
19 | B13 | no binding
20 | B14 | no binding
21 | B15 | no binding
22 | B16 | no binding
23 | B17 | no binding

Target: T3, mouse CXCL13
Assay: ELISA, coated antigen

Row | Binder | EC50 [µg/mL] | binding result
24 | B12 | 0.538 | –
25 | B13 | 0.761 | –
26 | B14 | – | no binding
27 | B15 | – | no binding
28 | B16 | – | no binding
29 | B17 | – | no binding

Target: T1, human CXCL13
Assay: SPR Biacore 8K, Fab over immobilised CXCL13
Description: HuCXCL13 binding affinity by Surface Plasmon Resonance. 411A11E9, 415A3D1, 64C10G1, 21H12D9, 329F2E1, 71F4A3 were selected to produce Fab and tested binding affinity. The binding of the antibodies to huCXCL13 was examined by Biacore 8K. 10 mM HEPES, 150 mM NaCl, 3 mM EDTA, 0.05% Tween-20, pH 7.4 served as running buffer and 10 mM glycine-HCl, pH2.0 served as regeneration buffer. CXCL13 protein was immobilized on Sensor Chip CM5 using amine coupling method (immobilization level ˜30RU). The serial concentrations of Fab (0-16 nM) were injected over immobilized CXCL13 at the flow rate of 30 μl/min. The dissociation phases were 600s.

Row | Binder | Kd [nM] | koff [s⁻¹] | kon [M⁻¹ s⁻¹]
30 | B18 | 1.2 | 0.00306 | 2.56e+06
31 | B19 | 0.602 | 0.000581 | 966000

Target: T1, human CXCL13
Assay: cell-based blocking ELISA, CXCL13 to CHO-K1-CXCR5
Description: Splenocytes were electro-fused with mouse myeloma cell line SP2/0 cells and plated into 96-well culture plate. The hybridoma supernatants were tested by ELISA binding assay for anti-human CXCL13 binders. Supernatants of positive binding clones were screened for function in blocking of human CXCL13 binding to its […] CXCR5 by Cell-based receptor blocking ELISA assay. Briefly, 5×10⁴ CHO-K1-CXCR5 cells were plated in 96-well plate with 100 μl of culture medium and incubated at 37° C. overnight. Cells were fixed with 100 μl of 2% PFA at RT for 1 hr after washing with PBS for 1 time. Blocking was done with 1% BSA in PBST for 1 hr at RT. Supernatants were diluted with PBS and pre-incubated with equal volume of 0.3 μg/ml human CXCL13 for 30 min at RT. 100 μl of antibody-antigen complex was then transferred into each cell wells for 30 min at RT. The samples were washed with 1×PBST for 3 times and 100 μl of 3 μg/ml of human Mab5261 antibody was add into each well to capture human CXCL13 and anti-human Fc-HRP was used to indirectly detect human CXCL13 when it bound to CHO-K1-CXCR5 cells. […] Reading was done at […].
Those antibodies were purified from hybridoma supernatants by binding with Protein G column and characterized by ELISA binding assays and cell-based blocking ELISA assays. […] 11/20 clones bound to both human CXCL13 and cynomolgus CXCL13 appeared to completely block human CXCL13 to human CXCR5. 11 blockers bound to both huCXCL13 and cynoCXCL13 were produced as chimeric human IgG1 antibodies for further Characterization.

Row | Binder | IC50 [µg/mL]
32 | B12 | 11.7
33 | B13 | 8.38
34 | B14 | 0.974
35 | B15 | 0.703
36 | B16 | 3.24
37 | B17 | 1
